From the supplement of paper PMC10126150
± gives the standard deviation of the averaged measurements.

System: ATP
Test: switch fluorescence ratio, 500 uM ATP over buffer (Cy3 cluster intensity, sum of 5 cycles each) (fold (ratio)); higher = stronger signal-on switching upon ATP binding; sequences stand for … in TCGTCGGCAGCGTCAGATGTGTATAAGAGACAGTTTTTTTTTTTTTTTTTTTTTTTTT…TC
Conditions: aptamer strand: ATP DNA aptamer (quencher-CACCTGGGGGAGTATTGCGGAGGAAGG + anchor), 100 nM annealed; ATP concentration: 500 uM
Procedure, shortened: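 Cy3-labelled switching-strand clusters on a modified Illumina MiSeq flow-cell were annealed to 100 nM quencher-labelled ATP aptamer, imaged in selection buffer, then imaged after 15 min with 500 uM ATP at 22 °C. Five buffer/ATP cycles ran, with NaOH stripping and re-annealing between them. The fluorescence ratio is summed target-cycle over summed buffer-cycle Cy3 intensity per cluster, averaged per switch-domain sequence. Clusters outside 100-1000 RFU were excluded.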
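Further: ATP exposure 15 min at 22 °C before imaging.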

Sequence | switch fluorescence ratio
ACGGCGGTGC | 1.034 ± 0.0078
AGCAGGTGGG | 1.05 ± 0.076
GTGATACCCG | 1.02 ± 0.058
CGGGGCTATT | 0.999 ± 0.03
GCTTGCATGC | 1.04 ± 0.022
GTTTAGGGGC | 0.992 ± 0.023
GTGGTTGGCC | 1.011 ± 0.0027
ACGAGTTCAT | 0.999 ± 0.017
TATTAATTTT | 1.02 ± 0.015
TGAGAGTTTA | 1.024 ± 0.0062
GAGGTGAGTG | 0.9921 ± 0.0066
AGGGTTGCGA | 1.02 ± 0.025
GATTCTGGCA | 0.9715 ± 0.0057
GCCCGACTCT | 1.01 ± 0.041
AGCGCGATTC | 1.99 ± 0.13
GCTGTTTCCC | 0.989 ± 0.024
TTGCATAGTG | 0.9536 ± 0.0026
TTTGGAGAGA | 1.001 ± 0.01
CCTAGGATTC | 1.01 ± 0.043
TGTTGGCCAG | 0.9797 ± 0.0075
TTGTCCCCGG | 1.58 ± 0.68
GTGCTTAATG | 0.975 ± 0.011
TTACGCCGAC | 1.14 ± 0.15

Sequence | switch fluorescence ratio
GAAATAACTC | 1.36 ± 0.43
CGTGAGGGGG | 1.01 ± 0.012
CATATACATT | 1.056 ± 0.0039
TTGATAGTTG | 1.01 ± 0.049
CATGTTTTTG | 1 ± 0.025
GCATAATGGG | 1.008 ± 0.0057
GCGGTAGAGC | 1.017 ± 0.0099
GCTCATAAAA | 1.001 ± 0.0065
GATTCTCCGT | 1.16 ± 0.016
TTACGGTTT | 1 ± 0.025
GGTGGAGGGA | 0.987 ± 0.031
AGTATCTCTT | 1.0161 ± 4.4e-05
AGTTTTTCAA | 0.9984 ± 0.0073
GAAGGAGCAA | 2.54 ± 1.2
TGTTAAAAAC | 1.082 ± 0.0085
CCTAGTACCG | 0.992 ± 0.069
AGCAGAAATT | 1.02 ± 0.054
TTTGCTGGTT | 1.02 ± 0.071
AGTGGGAGAG | 1.02 ± 0.06
TACGGGCTTT | 1.03 ± 0.033
GCTGGTAGGG | 1.01 ± 0.026
GGGGGGCCTA | 0.988 ± 0.046
CTGATGGGTG | 1.01 ± 0.013

Sequence | switch fluorescence ratio
CGAAGGCTGT | 1.003 ± 0.0095
GGTGGGGGGT | 0.989 ± 0.029
ATCAAGACAG | 1.01 ± 0.033
AAAAGGAAAG | 0.957 ± 0.037
TTATCGTGC | 0.9864 ± 0.0071
TGGTTTTAGA | 0.999 ± 0.016
GGCACGATGG | 1 ± 0.035
AAGTACAGCG | 1.03 ± 0.026
TCAGGCGTGA | 0.987 ± 0.035
CTCTTGAGCC | 1.01 ± 0.044
GGGAGATATG | 0.9788 ± 0.0095
ATGACGCTGG | 1.03 ± 0.13
AGAGATGTTG | 0.993 ± 0.045
CAGCATGGGT | 1.025 ± 0.0034
TGGTGTGGGT | 0.989 ± 0.014
AAGGAAGACA | 0.995 ± 0.03
AGTAATCGCT | 0.985 ± 0.01
GGGGGATGCG | 1 ± 0.048
ACAGGGGGAA | 1.01 ± 0.024
CTCGGAGAGG | 0.987 ± 0.033
CAGGTGGTCA | 1 ± 0.021
CAGGTCATTA | 0.9784 ± 0.0076
TCAAAGGGCC | 1.004 ± 0.0073

Sequence | switch fluorescence ratio
CCAGGTAGAG | 1.32 ± 0.13
CGGCGGGGGC | 0.998 ± 0.022
TCGTTTTTAT | 0.983 ± 0.023
ATTTTCATTG | 0.9749 ± 0.0087
TTTTCTGTTC | 0.988 ± 0.044
GGTGCAAGCT | 1.019 ± 0.0023
TAGATCGAAC | 1.02 ± 0.024
GAGTGTGCGT | 0.975 ± 0.036
GATTTATAAT | 1.014 ± 0.0029
GTTATAATTG | 0.984 ± 0.035
AGGCTTAAGA | 0.976 ± 0.031
GGCCGGGTTA | 1.01 ± 0.042
TAATCTCCGG | 1.04 ± 0.04
AAAAAATGGA | 1.01 ± 0.031
CAGCGGTAGG | 1.03 ± 0.016
TTGAATTATT | 1.03 ± 0.013
TTAAAAGGGA | 1.02 ± 0.07
TGGTTTATAC | 1.32 ± 0.43
TCAGTTTTCC | 1.02 ± 0.018
CAAGTAGGTG | 1.03 ± 0.015
GTGAAGTATG | 1.016 ± 0.00074
GCGGGTTAAG | 0.9832 ± 0.0023
TGTAGTCCGT | 0.982 ± 0.0055

Sequence | switch fluorescence ratio
CTTGTCGTTC | 1.01 ± 0.026
GATGTTTGGA | 1.014 ± 0.0049
GTTGGAGGAT | 0.9843 ± 0.0026
TTCCGGCGGA | 1.08 ± 0.026
CGGTCTATTG | 1.002 ± 0.0098
TTAAGGGGGG | 1 ± 0.031
TAGATCCTTT | 1.03 ± 0.027
TCGGCGAAAG | 1.02 ± 0.023
TTTTGACGCG | 1.06 ± 0.052
TTTGGGCTGC | 1.28 ± 0.41
AATGTCTGGG | 0.9982 ± 0.0018
TTCCCGGGGA | 1.24 ± 0.4
GGGAGAGTGG | 0.9868 ± 0.0015
GGGGTCACGG | 1.006 ± 0.0027
GAAGCCGTTT | 1.01 ± 0.039
TGTTTGGTCA | 0.976 ± 0.065
GCCTAATAGT | 0.98 ± 0.027
CCTGAGTCGT | 1.09 ± 0.017
TTTATCGGTG | 0.995 ± 0.035
AAAAGTACGC | 1.09 ± 0.11
TATCGAGCAT | 1.028 ± 0.0096
AAGGTGGGTA | 0.99 ± 0.031
GTTAGGAGTT | 0.941 ± 0.039

Sequence | switch fluorescence ratio
ACGAACGGTA | 1.37 ± 0.032
TTGATTTAGG | 0.995 ± 0.028
TGGGTATTAT | 0.9997 ± 0.0052
CTGGGGCGTG | 1.02 ± 0.014
TGTGTTAAGG | 0.973 ± 0.011
AGGGGGGAAA | 1.01 ± 0.027
TGTGTGGTGT | 0.993 ± 0.036
TCGTGGGGTG | 0.999 ± 0.042
TGTTGAAATC | 1.01 ± 0.076
TAGGTCGCCA | 1.04 ± 0.011
TAACCAGTGG | 1.07 ± 0.021
CATACGAAGT | 1.02 ± 0.068
TGTTGTTGTA | 1.015 ± 0.0081
TGGTTGAACG | 0.996 ± 0.019
AACAGGGGTG | 1.09 ± 0.015
AGCGGTCCTC | 1.09 ± 0.039
GAAATCGGGG | 1.05 ± 0.15
CAGAGTGCTG | 1.06 ± 0.03
TGATTGGTTT | 1 ± 0.011
TTTTAGAGCC | 1.04 ± 0.043
GGTTTAGCG | 1.014 ± 0.0025
GCGGTTGGGG | 1.01 ± 0.018
GGGTGCAGGC | 0.675 ± 0.032

Sequence | switch fluorescence ratio
TGATCGGGTA | 1 ± 0.011
TTGTCACGG | 0.986 ± 0.035
TTGGGGTTGC | 1.01 ± 0.034
ATCAGTATAT | 0.992 ± 0.021
CACATGTTAT | 1.0197 ± 0.00089
TAAAGCAGGG | 1.01 ± 0.023
GTTAGCGCAT | 1.04 ± 0.025
ACCGAGGCAT | 3.81 ± 1.5
GTGGATGCAT | 1.01 ± 0.022
GTATGAGGGA | 0.993 ± 0.018
CAAATGGGGG | 0.985 ± 0.015
TGCTTAGGTT | 0.988 ± 0.011
TAACGGTGTG | 0.962 ± 0.017
TCCGGAGGGT | 1.05 ± 0.06
GCGGGTATGG | 1 ± 0.021
CTGTGACAAT | 1.04 ± 0.029
AAAAGTACGA | 1.07 ± 0.011
TGAAATATTT | 1.21 ± 0.21
TAAAGTATAA | 0.972 ± 0.026
